Measurements as given in patent US8168592B2 (Amgen Inc., priority 2005, dated 2012).
Entries after “also recorded” stand apart in the source; their conditions may differ. Where two headings read alike, the source gives them in different places. PEG = not defined here

What was measured:
[1] = stability in undiluted human plasma at 37° C. by ELISA; format: in vitro ADME
Text: (§1) Examples of this approach are the replacement of arginine (R) with citrulline, and phenylalanine (F) with 3-(1-naphthyl)alanine. We have also cyclized side-chain to side-chain (for example, i, i+4 residues) to form ring structures which also increase overall plasma stability (See, e.g., FIG. 3 and FIG. 13).

[2] = rat, in vivo, 2 mg/kg
Method: Rat pharmacokinetic studies. […] There were three rats per group (n=3), each weighing 250-325 g. Each group received either a 2 mg/kg intravenous or subcutaneous discrete administration. The approximate dose volume was 0.3 mL per rat. Approximately 0.25 mL of whole blood was taken per time point at the following post-dose collection times for the intravenous groups (in hours): 0.083, 0.25, 0.5, 1, 2, 4, 6, 8, 24, 48, 72, 96 and the following time points for the subcutaneous groups (in hours): 0.25, 0.5, 1, 2, 4, 6, 8, 24, 48, 72, 96. Whole blood samples were collected in microtainer vials containing EDTA as anticoagulant and were kept on wet ice until processed for plasma. The plasma was obtained by centrifuging the whole blood for approximately 5 min at 11,500 rpm. Plasma was transferred to new tubes and stored frozen at approximately −70° C. until quantitative analysis. […] The individual sample concentrations for each time point were averaged (n=3) within a given dose group using Excel 2000 software. The averaged plasma concentration-time data were analyzed by noncompartmental methods using WinNonlin v.3.3 software. Nominal sample times were used in the pharmacokinetic analysis. The area under the concentration-time curve was calculated using the linear/log trapezoidal method to determine exposure.

[3] = stability in undiluted rat plasma at 37° C. by ELISA; format: in vitro ADME
Text: as §1

[4] = stability in undiluted Cynomolgus plasma at 37° C. by ELISA; format: in vitro ADME; conditions: cynomolgus monkey
Text: as §1

[5] = rat plasma (10% rat plasma in the legend of FIG. 2); conditions: room temperature, up to 1 hour
CGRP1 receptor [6] = biological target: T1, CGRP1 receptor (Rattus norvegicus, UniProt Q63118+Q9JJ74); test: laser Doppler blood flowmetry assay (hαCGRP-induced skin blood flow); format: in vivo; conditions: i.v., pre-treatment 5 minutes
T1 construct: from tissue; host or cells: living anaesthetised rat, abdominal skin
Method: Methods. An automated laser Doppler blood flowmetry device is used (MoorLDI®; Moor Instrument, Devon, UK). The device was turned on prior to the start of experiments and allowed to warm up for 20 minutes. Blood flow data (in FLUX) were read from software records (see below).
For each rat, the experimental procedure was performed within a single day and was each rat was sacrificed on the same day immediately after the experiment was over. On an experiment day, each rat was weighed and administered 1 ml/kg (intramuscular injection in right leg) of an anesthetic cocktail consisting of Ketamine, Xylazine and PBS (5:3:2). […] A small dot was placed near the center of the abdomen using a marker. The animal was then ready for the experiment.
Approximately 20 min after the injection of the anesthetic cocktail, baseline blood flow readings were collected for each animal. Each rat was placed under the laser Doppler scanning device, matching the laser with the marker dot on the abdomen. Using the device's software package, the device was activated and the surface of the abdomen was scanned for 1 min with the laser. The scan area was 4 cm×4 cm. […]
In some cases, plasma IC50 values were calculated by performing least squares linear regression on log plasma concentration values (nM) vs. % change in blood flow values calculated for individual rats.

[7] = solubility in aqueous conjugation buffers; format: physicochemical
Method: Co-solvent mediated conjugation of vehicle to CGRP peptide antagonists. […] In an attempt to better solubilize these less soluble peptides during the conjugation reaction, and thereby improve conjugate yields, a variety of alcohol co-solvents were tested in the conjugation reaction.

rat CGRP1 receptor = rat CGRP1 receptor (Rattus norvegicus, UniProt Q63118+Q9JJ74); test: in vitro functional potency against the rat ortholog of the CGRP1 receptor; format: cell-based
Text: Results and Conclusions. […] This was reflected by an apparently similar rightward shift in potency in vivo.

[8] = in vitro metabolic identification in 100% monkey plasma, LC-MS/MS; format: in vitro ADME; conditions: 100% Cynomolgus monkey plasma, 4 hours
Text: Extracted samples were collected for LC-MS/MS analysis.
(Also, see Example 7 herein below for comparison with in vivo metabolic identification.)

[9] = in vivo metabolic identification in monkey plasma during intravenous infusion; parameters: species or system Cynomolgus monkey; conditions: 20 min during intravenous infusion
Text: Monkey pharmacokinetic studies.
Samples were taken as described above. After thawing, each 100-11 plasma sample was extracted by solid phase extraction. Extracted samples were collected for LC-MS/MS analysis.

[10] = mouse
Method: Peptide samples at 2 mg/ml in PBS were spiked with 5% mouse plasma and analyzed by sandwich ELISA (as described in Example 3 herein above) over 48 hours at room temperature. Peptide integrity was determined by sandwich ELISA requiring intact peptide termini.

CGRP1 receptor [11] = biological target: T2, CGRP1 receptor (Homo sapiens, UniProt O60894+Q16602); test: in vitro CGRP1 receptor mediated cAMP assay in SK-N-MC cells; format: cell-based; conditions: cAMP assay
T2 construct: SK-N-MC cells express CRLR and RAMP1, which form CGRP1 receptor; endogenous in cells; host or cells: SK-N-MC human neuroblastoma cells
Method in brief: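 Human SK-N-MC neuroblastoma cells, which endogenously express CRLR/RAMP1, were plated two days before assay and preincubated in plasma-free medium for 15 minutes at room temperature. Cells were then lysed for 30 minutes at 37° C, and cAMP in the lysates was quantified by competitive cAMP-AP chemiluminescent ELISA.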

[12] = monkey plasma during 30 minutes of intravenous infusion; conditions: Cynomolgus monkeys (Macaca fascicularis), up to 20 min during the infusion
[13] = 100% Cynomolgus monkey plasma; conditions: room temperature, up to 4 hour
100% human plasma = conditions: room temperature, up to 4 hour

T1 sequence (Q63118 24-464): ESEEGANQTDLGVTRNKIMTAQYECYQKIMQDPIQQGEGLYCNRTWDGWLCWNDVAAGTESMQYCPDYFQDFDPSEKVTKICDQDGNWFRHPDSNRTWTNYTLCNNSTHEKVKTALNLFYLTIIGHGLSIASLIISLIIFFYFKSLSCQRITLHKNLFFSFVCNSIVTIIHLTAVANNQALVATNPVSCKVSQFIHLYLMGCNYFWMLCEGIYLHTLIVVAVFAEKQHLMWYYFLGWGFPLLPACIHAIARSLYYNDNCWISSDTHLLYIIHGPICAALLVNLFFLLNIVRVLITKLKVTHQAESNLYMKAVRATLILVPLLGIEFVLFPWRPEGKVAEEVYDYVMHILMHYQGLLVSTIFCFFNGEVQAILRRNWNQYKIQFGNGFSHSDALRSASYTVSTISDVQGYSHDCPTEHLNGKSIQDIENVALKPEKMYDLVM
T1 sequence (Q9JJ74 27-148): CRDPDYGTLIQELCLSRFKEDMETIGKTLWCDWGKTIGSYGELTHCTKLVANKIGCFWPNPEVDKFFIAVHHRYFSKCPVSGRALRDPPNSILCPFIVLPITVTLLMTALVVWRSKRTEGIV
T2 sequence (Q16602 23-461): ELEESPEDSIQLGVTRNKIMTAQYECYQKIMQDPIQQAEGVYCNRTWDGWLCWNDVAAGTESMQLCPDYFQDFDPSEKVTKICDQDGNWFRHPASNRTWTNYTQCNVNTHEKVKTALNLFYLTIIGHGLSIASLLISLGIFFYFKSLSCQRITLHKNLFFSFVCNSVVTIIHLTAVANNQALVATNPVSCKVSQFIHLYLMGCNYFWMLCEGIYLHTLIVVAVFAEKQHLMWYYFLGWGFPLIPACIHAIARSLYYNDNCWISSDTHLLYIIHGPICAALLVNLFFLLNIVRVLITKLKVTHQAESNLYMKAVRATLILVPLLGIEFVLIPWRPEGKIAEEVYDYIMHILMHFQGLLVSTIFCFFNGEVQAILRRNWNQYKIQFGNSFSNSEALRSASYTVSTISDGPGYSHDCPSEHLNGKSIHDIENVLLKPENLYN
T2 sequence (O60894 27-148): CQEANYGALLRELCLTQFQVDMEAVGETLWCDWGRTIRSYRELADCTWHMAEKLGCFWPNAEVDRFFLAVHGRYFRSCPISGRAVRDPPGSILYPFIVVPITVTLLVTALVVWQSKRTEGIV
Chain of rat CGRP1 receptor (Q63118 24-464): as the sequence (Q63118 24-464) above
Chain of rat CGRP1 receptor (Q9JJ74 27-148): as the sequence (Q9JJ74 27-148) above

Compound: Ac-WVTH[Cit]LAGLLS[Cit]SGGVV[hArg]K(20 KPEGald)NFVPTDVGP[1-Nal]AF-NH2 (WVTHXLAGLLSXSGGVVXKNFVPTDVGPXAF; not fully specified; N-acetyl, C-amide, 20 kDa PEG, Cit, hArg, 1-Nal; CGRP peptide; MOD_RES (1)..(1): …ON; MISC_FEATURE (5)..(5): xaa=citrulline; MISC_FEATURE (12)..(12): xaa=citrulline; MISC_FEATURE (18)..(18): xaa=homoarginine; MISC_FEATURE (19)..(19): PEGylated; MISC_FEATURE (29)..(29): xaa=3-(1-naphthyl)alanine; MOD_RES (31)..(31): AMI) [SEQ ID NO: 173]
- t1/2 in human plasma [1]: >24 h
- AUC0-inf ([2]; iv): 80996 ng·h/mL
- AUC0-t ([2]; iv): 80440 ng·h/mL
- MRT ([2]; iv): 4.97 h
- AUC0-t ([2]; sc): 4385 ng·h/mL
- F % ([2]; sc): 5%
- t1/2 in rat plasma [3]: 8 to 9 h
- t1/2 in Cynomolgus plasma [4]: >24 h

Compound: Ac-WVTHRLAGLLSRSGGVVRKNFVPTDVGPFAF-NH2
- cleaved bond [5]: L16-S17, major; also recorded: S17-R18, major; also recorded: R18-S19, major

Compound: CC(=O)N[C@@H](Cc1c[nH]c2ccccc12)C(=O)N[C@H](C(=O)N[C@H](C(=O)N[C@@H](Cc1c[nH]cn1)C(=O)N[C@@H](CCCNC(=N)N)C(=O)N[C@@H](CC(C)C)C(=O)N[C@@H](C)C(=O)NCC(=O)N[C@@H](CC(C)C)C(=O)N[C@@H](CC(C)C)C(=O)N[C@@H](CO)C(=O)N[C@@H](CCCNC(=N)N)C(=O)N[C@@H](CO)C(=O)NCC(=O)NCC(=O)N[C@H](C(=O)N[C@H](C(=O)N[C@@H](CCCNC(=N)N)C(=O)N[C@@H](CCCCN)C(=O)N[C@@H](CC(N)=O)C(=O)N[C@@H](Cc1ccccc1)C(=O)N[C@H](C(=O)N1CCC[C@H]1C(=O)N[C@H](C(=O)N[C@@H](CC(=O)O)C(=O)N[C@H](C(=O)NCC(=O)N1CCC[C@H]1C(=O)N[C@@H](Cc1ccccc1)C(=O)N[C@@H](C)C(=O)N[C@@H](Cc1ccccc1)C(N)=O)C(C)C)[C@@H](C)O)C(C)C)C(C)C)C(C)C)[C@@H](C)O)C(C)C [Compound 808]
- Efficacy observed (%) (at highest dose tested) (CGRP1 receptor [6]; 0.6 mg/kg): 100%

Compound: CC(=O)N[C@@H](Cc1c[nH]c2ccccc12)C(=O)N[C@H](C(=O)N[C@H](C(=O)N[C@@H](Cc1c[nH]cn1)C(=O)N[C@@H](CCCNC(N)=O)C(=O)N[C@@H](CC(C)C)C(=O)N[C@@H](C)C(=O)NCC(=O)N[C@@H](CC(C)C)C(=O)N[C@@H](CC(C)C)C(=O)N[C@@H](CO)C(=O)N[C@@H](CCCNC(N)=O)C(=O)N[C@@H](CO)C(=O)NCC(=O)NCC(=O)N[C@H](C(=O)N[C@H](C(=O)N[C@@H](CCCCNC(=N)N)C(=O)N[C@@H](CCCCN)C(=O)N[C@@H](CC(N)=O)C(=O)N[C@@H](Cc1ccccc1)C(=O)N[C@H](C(=O)N1CCC[C@H]1C(=O)N[C@H](C(=O)N[C@@H](CC(=O)O)C(=O)N[C@H](C(=O)NCC(=O)N1CCC[C@H]1C(=O)N[C@@H](Cc1ccccc1)C(=O)N[C@@H](C)C(=O)N[C@@H](Cc1ccccc1)C(N)=O)C(C)C)[C@@H](C)O)C(C)C)C(C)C)C(C)C)[C@@H](C)O)C(C)C [Compound 739]
- Efficacy observed (%) (at highest dose tested) (CGRP1 receptor [6]; 6 mg/kg): 100%

Compound: CC(=O)N[C@@H](Cc1c[nH]c2ccccc12)C(=O)N[C@H](C(=O)N[C@H](C(=O)N[C@@H](Cc1cnc[nH]1)C(=O)N[C@@H](CCCNC(N)=O)C(=O)N[C@@H](CC(C)C)C(=O)N[C@@H](C)C(=O)NCC(=O)N[C@@H](CC(C)C)C(=O)N[C@@H](CC(C)C)C(=O)N[C@@H](CO)C(=O)N[C@@H](CCCNC(N)=O)C(=O)N[C@@H](CO)C(=O)NCC(=O)NCC(=O)N[C@H](C(=O)N[C@H](C(=O)N[C@@H](CCCCNC(=N)N)C(=O)N[C@@H](CCCCN)C(=O)N[C@@H](CC(N)=O)C(=O)N[C@@H](Cc1ccccc1)C(=O)N[C@H](C(=O)N1CCC[C@H]1C(=O)N[C@H](C(=O)N[C@@H](CC(=O)O)C(=O)N[C@H](C(=O)NCC(=O)N1CCC[C@H]1C(=O)N[C@@H](Cc1ccccc1)C(=O)N[C@@H](C)C(=O)N[C@@H](Cc1ccccc1)C(N)=O)C(C)C)[C@@H](C)O)C(C)C)C(C)C)C(C)C)[C@@H](C)O)C(C)C [SEQ ID NO:739]
- solubility in words [7]: relatively insoluble

Compound: SEQ ID NO:791 (WVTHXLAGLLSXSGGVVRKNFVPTDVGPFAF; not fully specified; CGRP peptide; MOD_RES (1)..(1): …ON; MISC_FEATURE (5)..(5): xaa=citrulline; MISC_FEATURE (12)..(12): xaa=citrulline; MISC_FEATURE (19)..(19): PEGylated; MOD_RES (31)..(31): AMIDATION)
- rightward shift of in vitro potency compared with SEQ ID NO:31 (rat CGRP1 receptor): approximately 9 fold

Compound: CC(=O)N[C@@H](Cc1c[nH]c2ccccc12)C(=O)N[C@H](C(=O)N[C@H](C(=O)N[C@@H](Cc1c[nH]cn1)C(=O)N[C@@H](CCCNC(N)=O)C(=O)N[C@@H](CC(C)C)C(=O)N[C@@H](C)C(=O)NCC(=O)N[C@@H](CC(C)C)C(=O)N[C@@H](CC(C)C)C(=O)N[C@@H](CO)C(=O)N[C@@H](CCCNC(N)=O)C(=O)N[C@@H](CO)C(=O)NCC(=O)NCC(=O)N[C@H](C(=O)N[C@H](C(=O)N[C@@H](CCCCNC(=N)N)C(=O)N[C@@H](CCCCN)C(=O)N[C@@H](CC(N)=O)C(=O)N[C@@H](Cc1ccccc1)C(=O)N[C@H](C(=O)N1CCC[C@H]1C(=O)N[C@H](C(=O)N[C@@H](CC(=O)O)C(=O)N[C@H](C(=O)NCC(=O)N1[C@H](C(=O)N[C@@H](Cc2ccccc2)C(=O)N[C@@H](C)C(=O)N[C@@H](Cc2ccccc2)C(N)=O)C[C@@H]2CCCC[C@@H]21)C(C)C)[C@@H](C)O)C(C)C)C(C)C)C(C)C)[C@@H](C)O)C(C)C [SEQ ID NO:658]
- major degradation product [8]: fragment W7-K25
- degradation products in vivo [9]: fragments W7-T9, T30-A36, W7-N26, T30-F37 and W7-hR24
- solubility in words [7]: relatively insoluble

Compound: SEQ ID NO:15 (Ac-WVTHRLAGLLSRSGGVVRK(PEG)NFVPTDVGPFAF-NH2; reading uncertain)
- half-life longer than the non-PEGylated parent peptide [10]: more than 9 fold
- improved potency relative to native CGRP(8-37) (SEQ ID NO:1) (CGRP1 receptor [11]): about 12 fold
- loss in antagonist activity on PEGylation relative to the unconjugated parent peptide (CGRP1 receptor [11]): three

Compound: Ac-WVTH[Cit]LAGLLS[Cit]SGGVV[hArg]KNFVPTDVG[Oic]FAF-NH2
- fragment found [12]: W7-T9, 20 min during the infusion; also recorded: T30-A36, 20 min during the infusion; also recorded: W7-N26, 20 min during the infusion; also recorded: T30-F37, 20 min during the infusion; also recorded: W7-hR24, 20 min during the infusion
- fragment found [13]: W7-K25, major
- fragment found (100% human plasma): W7-hR24, major
